# What was measured:
# human FcγRIIb (human) [1] = target: human FcγRIIb (human) (UniProt P31994); assay: flow cytometry, background staining on EBV-transformed B cells of a 2B.4/2B.4 donor
# human FcγRIIb (human) [2] = target: human FcγRIIb (human) (UniProt P31994); assay: flow cytometry, background staining on peripheral B lymphocytes of 2B.1/2B.1 donors
# human FcγRIIb (human) [3] = target: human FcγRIIb (human) (UniProt P31994); assay: flow cytometry, background staining on EBV-transformed B cells of 2B.1/2B.4 donors
# human FcγRIIb (human) [4] = target: human FcγRIIb (human) (UniProt P31994); assay: flow cytometry, background staining on peripheral B lymphocytes of 2B.1/2B.4 donors
# human FcγRIIb (human) [5] = target: human FcγRIIb (human) (UniProt P31994); assay: flow cytometry, background staining on EBV-transformed B cells of 2B.1/2B.1 donors
# human FcγRIIb (human) [6] = target: human FcγRIIb (human) (UniProt P31994); assay: flow cytometry on FcγRIIb transfectants
# [7] = target: human FcγRIIa, H131 allele (human) (UniProt P12318); assay: flow cytometry on FcγRIIa (H131) transfectants
# [8] = target: human FcγRIIa, R131 allele (human) (UniProt P12318); assay: flow cytometry on FcγRIIa (R131) transfectants
# UniProt P31994, sequence (P31994 43-310): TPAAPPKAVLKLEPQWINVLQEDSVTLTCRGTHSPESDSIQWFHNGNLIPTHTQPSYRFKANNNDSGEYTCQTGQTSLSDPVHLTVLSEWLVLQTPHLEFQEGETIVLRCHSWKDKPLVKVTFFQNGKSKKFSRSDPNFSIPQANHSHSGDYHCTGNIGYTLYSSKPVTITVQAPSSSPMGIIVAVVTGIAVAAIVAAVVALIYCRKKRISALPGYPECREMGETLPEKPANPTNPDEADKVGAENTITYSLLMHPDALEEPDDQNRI
Substance,MFI (human FcγRIIb (human) [1]),MFI (human FcγRIIb (human) [2]),MFI (human FcγRIIb (human) [3]),MFI (human FcγRIIb (human) [4]),MFI (human FcγRIIb (human) [5]),fold staining against mAb IV.3 (human FcγRIIb (human) [6]),fold difference against mAb IV.3 [7],fold difference against mAb IV.3 [8]
mIgG1 isotype control (antibody),3.9 MFI,4.1 MFI,3.6 MFI,3.9 MFI,3.6 MFI,,,
mAb AT-10 (antibody),,,,,,10 fold,< 2 fold,< 2 fold

# From US20080248465A1
